Experiments:
[1] = target: T1, canine PD-1/PD-L1 binding (Canis lupus familiaris, UniProt A0A8I3P7C4); assay: Canine PD-1/PD-L1 binding inhibition ELISA (cPD-1-Ig immobilized, biotinylated cPD-L1-Ig); settings: antibody 0, 2.5, 5 and 10 μg/ml
T1 construct: made in house; host or cells: Expi293F
T1 sequence (A0A8I3P7C4 19-237): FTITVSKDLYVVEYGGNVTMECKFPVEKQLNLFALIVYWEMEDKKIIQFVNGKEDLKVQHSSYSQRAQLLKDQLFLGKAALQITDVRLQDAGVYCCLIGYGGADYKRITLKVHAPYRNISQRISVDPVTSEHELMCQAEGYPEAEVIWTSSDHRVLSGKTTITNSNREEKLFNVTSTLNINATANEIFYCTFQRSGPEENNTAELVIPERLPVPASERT
Method: Briefly, canine PD-1-Ig (prepared in 2.4 above) was immobilized on flat bottomed 96-well plates and blocked with 1% BSA and 0.05% Tween 20-containing PBS. […] The binding of cPD-L1-Ig to cPD-1-Ig was measured by color reaction using Neutravidin-HRP (Thermo Fisher Scientific) and TMB one component substrate (Bethyl Laboratories).
Briefly, heavy chain and light chain variable region genes were identified from hybridomas producing rat anti-bovine PD-L1 monoclonal antibodies 4G12 and 6G7. Further, the heavy chain and light chain variable region genes of the above rat antibodies were linked to the constant region of heavy chain IgG4 and the constant region of light chain Lambda of a known canine antibody, respectively, to prepare nucleotide sequences, followed by codon optimization (SEQ ID NOS: 9 and 10 (amino acid sequences), SEQ ID NOS: 19 and 20 (nucleotide sequences after codon optimization). Then, synthesis of genes was performed so that NotI restriction enzyme recognition site. KOZAK sequence, chimeric antibody's light chain sequence, poly-A addition signal sequence (PABGH), promoter sequence (PCMV), SacI restriction enzyme recognition site, intron sequence (INRBG), KOZAK sequence, chimeric antibody's heavy chain sequence and XbaI restriction enzyme recognition site would be located in this order. […]

[2] = system: canine CD80/PD-L1 binding; assay: Canine CD80/PD-L1 binding inhibition ELISA (cCD80-Ig immobilized, cPD-L1-Ig); settings: antibody 0, 2.5, 5 and 10 μg/ml
Method: Using the canine PD-1-Ig, PD-L1-Ig and CD80-Ig (described above), anti-PD-L1 antibody was tested for its ability to inhibit canine PD-1/PD-L1 binding and CD80/PD-L1 binding. Briefly, canine PD-1-Ig or CD80-Ig was immobilized on flat-bottom 96-well plates.

canine PBMCs = assay: Canine immune cell activation: SEB-stimulated PBMCs, cytokine ELISA and EdU uptake; type: cell-based; settings: SEB stimulation
oral melanoma = assay: Clinical trials in dogs with oral melanoma (Clinical Trials 1, 3, 4); type: in vivo, dog
Method: Briefly, tumor tissue samples fixed with formaldehyde and embedded in paraffin were sliced into 4 μm thick sections with a microtome, attached to and dried on silane-coated slide glass (Matsunami Glass) and deparaffinized with xylene/alcohol. While the resultant sections were soaked in citrate buffer [citric acid (Wako Pure Chemical) 0.37 g, trisodium citrate dihydrate (Kishida Chemical) 2.4 g, distilled water 1000 ml], antigen retrieval treatment was performed for 10 min with microwave, followed by staining using a Nichirei automatic immuno-staining device. As pretreatment, sample sections were soaked in 0.3% hydrogen peroxide-containing methanol solution at room temperature for 15 min and washed with PBS. Then, anti-bovine PD-L1 monoclonal antibody was added and reaction was conducted at room temperature for 30 min. After washing with PBS, histofine simple stain MAX-PO (Rat) (Nichirei Bioscience) was added and reaction was carried at room temperature for 30 min, followed by coloring with 3,3′-diaminobenzidine tetrahydrocholride and observation with a light microscope. Dogs with oral melanoma or undifferentiated sarcoma in which tumor cells were PD-L1 positive were used in the following inoculation test (clinical trial).
With respect to the rat-canine chimeric anti-PD-L1 antibody c4G12 to be inoculated into dogs in the clinical trial, the culture supernatant obtained by the procedures described in 2.8 above was purified by affinity chromatography using MabSelect SuRe LX (GE Healthcare) and then by hydroxyapatite chromatography using BioScale CHT20-I prepacked column (Bio-Rad) in order to remove contaminants and polymeric proteins. Aggregate-containing fractions were further purified by anion exchange chromatography using HiScreen Q-Sepharose HP prepacked column (GE Healthcare).
(1) Safety Test: The established rat-canine chimeric anti-PD-L1 antibody c4G12 was administered intravenously into a dog (beagle, spayed female, 13-year-old, about 10 kg in body weight) at 2 mg/kg, every 2 weeks, 3 times in total. […] (2) Clinical Trial 1: The established rat-canine chimeric anti-PD-L1 antibody c4G12 was administered intravenously into a PD-L1 positive dog with relapsed oral melanoma (FIG. 9A) (miniature dachshund, male, 11-year-old, about 7.5 kg in body weight) at 2 mg/kg or 5 mg/kg, every 2 weeks, 22 times in total.

B1: c4G12: rat-canine chimeric anti-PD-L1 antibody, 4G12 variable regions, canine IgG-D/Lambda constant regions; light chain SEQ ID NO: 9, heavy chain SEQ ID NO: 10 (antibody)
heavy: MGWSQIILFLVAAATCVHSQVQLQQSGAELVKPGSSVKISCKASGYTFTSNFMHWVKQQPGNGLEWIGWIYPEYGNTKYNQKFDGKATLTADKSSSTAYMQLSSLTSEDSAVYFCASEEAVISLVYWGQGTLVTVSSASTTAPSVFPLAPSCGSTSGSTVALACLVSGYFPEPVTVSWNSGSLTSGVHTFPSVLQSSGLYSLSSTVTVPSSRWPSETFTCNVVHPASNTKVDKPVPKESTCKCISPCPVPESLGGPSVFIFPPKPKDILRITRTPEITCVVLDLGREDPEVQISWFVDGKEVHTAKTQPREQQFNSTYRVVSVLPIEHQDWLTGKEFKCRVNHIGLPSPIERTISKARGQAHQPSVYVLPPSPKELSSSDTVTLTCLIKDFFPPEIDVEWQSNGQPEPESKYHTTAPQLDEDGSYFLYSKLSVDKSRWQQGDTFTCAVMHEALQNHYTDLSLSHSPGK
light: MESQTHVLISLLLSVSGTYGDIAITQSPSSVAVSVGETVTLSCKSSQSLLYSENQKDYLGWYQQKPGQTPKPLIYWATNRHTGVPDRFTGSGSGTDFTLIISSVQAEDLADYYCGQYLVYPFTFGPGTKLELKQPKASPSVTLFPPSSEELGANKATLVCLISDFYPSGVTVAWKASGSPVTQGVETTKPSKQSNNKYAASSYLSLTPDKWKSHSSFSCLVTHEGSTVEKKVAPAECS
modifications: chimeric H chain; chimeric L chain
Inhibitory activity against canine PD-1/PD-L1 binding [1]: reduced the amounts of binding | Inhibitory activity against canine CD80/PD-L1 binding [2]: reduced the amounts of binding | IFN-γ production from canine PBMCs (canine PBMCs; 3 days, ELISA): increased | IL-2 production from canine PBMCs (canine PBMCs; 3 days, ELISA): increased | EdU uptake in canine CD4+ and CD8+ lymphocytes (cell proliferation) (canine PBMCs; EdU added at day 2, flow cytometry): enhanced | Criterion of PR (30% or more reduction in longest tumor diameter vs baseline) (oral melanoma; Clinical Trial 1): satisfied at weeks 16-20 and at week 34 and thereafter | Metastases to lymph nodes or the lung (oral melanoma; Clinical Trial 1, observation period of 44 weeks): no metastases to lymph nodes or the lung were observed | Pulmonary metastatic lesions at week 18 (oral melanoma; Clinical Trial 3, primary lesion removed by surgery, 2 or 5 mg/kg i.v. every 2 weeks, 9 times): a plurality of pulmonary metastatic lesions disappeared | Tumor size during observation period (oral melanoma; Clinical Trial 4, 4 dogs with pulmonary metastasis, 2 or 5 mg/kg i.v. every 2 weeks): no clear reduction in tumor size
